Experimental data: PMC11033958

Key:
[1] = target: ACKR3_RlucII (N-terminally FLAG-tagged human ACKR3, residues 2–362, with a C-terminal fusion of Renilla luciferase II) (human) (UniProt P25106)
[2] = target: purified ACKR3:CXCL12_(LRHQ) complex, ACKR3 phosphorylated in vitro by GRK5 (UniProt P25106); experiment: pull-down; 1.1 µM purified ACKR3:LRHQ complex phosphorylated by 1.1 µM GRK2 or GRK5 (1 mM ATP, 20 min, room temperature), 2.2 µM purified β-arrestin1 or 2 added for 40 min; captured on M2 anti-FLAG resin at 4°C, washed in 50 mM HEPES pH 7.5, 150 mM NaCl, LMNG/CHS, eluted with 3×FLAG peptide; SDS-PAGE band densities, arrestin as percent of ACKR3
[3] = target: purified ACKR3:CXCL12_(LRHQ) complex, ACKR3 phosphorylated in vitro by GRK2 (UniProt P25106); experiment: as above

CXCL12, sequence (P48061 22-93): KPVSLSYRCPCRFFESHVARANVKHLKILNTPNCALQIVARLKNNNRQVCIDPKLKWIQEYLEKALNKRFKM

CXCL12 (from UniProt P48061 22-93) (ligand)
CXCL12 removed from the medium (25 nM CXCL12, 16 hours at 37°C) by WT HEK293A cells expressing ACKR3 RlucII, remaining chemokine by ELISA, against cells with empty vector [1]: 64%

bovine β-arrestin1 (from UniProt P17870 1-418) (natural protein)
percent of the receptor complexed with β-arrestin [2]: 49%

bovine β-arrestin2 (1–393) (from UniProt P32120 1-393) (domain or fragment)
percent of the receptor complexed with β-arrestin [2]: 73%
percent of the receptor complexed with β-arrestin [3]: 14%
